Usually EC50 stands for the concentration giving half of the maximal effect. A lower EC50 goes with higher potency in that assay.

These results are taken from patent publication US20240182561A1, “CALCIUM VOLTAGE-GATED CHANNEL AUXILIARY SUBUNIT GAMMA 1 (CACNG1) BINDING PROTEINS AND CACNG1-MEDIATED DELIVERY TO SKELETAL MUSCLE” (Regeneron Pharmaceuticals, Inc., priority 2022, published 2024).

One assay has as its system CACNG1^Hu/Hu myofibers. Put plainly: Antibody binding to single myofibers ex vivo. To be noted: 100 nM antibody, 30 minutes; FIG. 2. On the set-up: species or system mouse. As for the experimental part:
(§1) Single myofibers were isolated from either wildtype mice, mice that were homozygous for the deletion of CACNG1 (referred to as CACNG1 knockout mice), or mice that were homozygous for the expression of human CACNG1 in place of mouse CACNG1 (referred to as CACNG1^Hu/Hu). The gastrocnemius muscle was removed, collagenase digested, and single myofibers were isolated, washed, and incubated overnight at 37° C. at 5% CO2, in DMEM+10% horse serum. Following overnight incubation, single myofibers were incubated with 100 nM of each CACNG1 antibody or an isotype control antibody for 30 minutes. Myofibers were then washed twice in DMEM+10% horse serum, and subsequently incubated with 10 μg/mL of fluorescent-conjugated secondary antibodies for 30 minutes, washed twice in DMEM+10% horse serum, and then fixed with 4% paraformaldehyde (PFA) for 15 minutes at room temperature. Single fibers were then washed twice with PBS, stained with Hoechst for 5 minutes, washed once more with PBS, then transferred to microscope slides, cover slipped, and imaged using a Zeiss LSM 710 confocal microscope.

Assay [1] concerns wildtype or CACNG1 knockout myofibers. Nature of the assay: Antibody binding to single myofibers ex vivo. Also noted: species or system mouse. The conditions noted are these: 100 nM antibody, 30 minutes; FIG. 2. As to the method:
as §1

The test system of another assay is C2C12 mouse myotubes. Nature of the assay: High content imaging-based cell binding assay. To be noted: Table 11-1, C2C12; NB = no binding detected. From the text: (§2) To test the ability of anti-CACNG1 antibodies described herein to bind, internalize, and deliver payloads, cell binding and indirect cell killing assays were developed with primary human skeletal myoblasts (Cook Myosite Cat #SkMDC SK-1111), C2C12 mouse myoblasts (ATCC Cat #CRL-1772), and HEK293 cells engineered to express human and mouse CACNG1 (HEK293/hCACNG1 and HEK293/mCACNG1, respectively). To generate the HEK293/hCACNG1 and HEK293/mCACNG1 cell lines, FuGEGE 6 (Promega, Cat #E2691/5/3) was used to transfect HEK293HZ cells with a human CACNG1 (hCACNG1; amino acid M1-H222, Accession #NP_000718.1) or mouse CACNG1 (mCACNG1; amino acid M1-H223, Accession #NP_031608.1) expression vector. HEK293HZ is a highly transfectable subclone of HEK293 cells (1) authenticated via STIR (short tandem repeat) profiling to be 81% identical to HEK293 cells sourced from ATCC). The HEK293HZ cell line was maintained in DMEM+10% FBS+1% L-glutamine/penicillin/streptomycin, while HEK293/hCACNG1 and HEK293/mCACNG1 cell lines were maintained in DMEM+10% FBS+1% L-glutamine/penicillin/streptomycin+500 ug/mL G418. […]
(§3) Relative binding of anti-CACNG1 antibodies was assessed across the entire panel of cell lines via imaging analysis. […] Images were acquired with a 10× objective on the Opera Phenix (Perkin Elmer) and relative fluorescence units (RFU) was determined using Harmony software (Perkin Elmer).

The next assay addresses T1, HEK293/mCACNG1 (Mus musculus, UniProt O70578).
T1 construct: mouse CACNG1 (mCACNG1); expressed in transfected cells
T1 sequence (O70578 1-223): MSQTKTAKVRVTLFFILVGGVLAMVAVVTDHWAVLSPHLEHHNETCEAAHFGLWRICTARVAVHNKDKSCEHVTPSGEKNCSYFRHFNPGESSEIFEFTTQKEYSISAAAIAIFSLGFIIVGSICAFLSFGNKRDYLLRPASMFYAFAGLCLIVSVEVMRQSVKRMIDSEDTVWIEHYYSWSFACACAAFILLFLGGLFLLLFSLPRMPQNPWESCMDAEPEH
Put plainly: High content imaging-based cell binding assay. To be noted: Table 11-1, 293/mCACNG1; NB = no binding detected.
From the text: as §2, §3

The next assay has as its system HEK293 Hz. Nature of the assay: High content imaging-based cell binding assay. The conditions noted are these: Table 11-1, HEK293 Hz; NB = no binding detected. On the set-up: species or system human.
From the text: as §2, §3

Another assay has as its system HEK293. Put plainly: Indirect (secondary) cell killing assay. The assay is classed as cell-based, human. To be noted: Table 11-3; maximum % kill.
From the text: as §2, with “ATCC).” for “ATCC). The HEK293HZ cell line was maintained in DMEM+10% FBS+1% L-glutamine/penicillin/streptomycin, while HEK293/hCACNG1 and HEK293/mCACNG1 cell lines were maintained in DMEM+10% FBS+1% L-glutamine/penicillin/streptomycin+500 ug/mL G418.”
An indirect cell killing assay was used to assess the ability of anti-CACNG1 antibodies to internalize and deliver payloads into cells. In vitro cytotoxicity of the anti-CACNG1 antibodies alone or in combination with Fab anti-human Fc or Fab anti-mouse Fc secondary antibodies conjugated to Duocarmycin DM (Moradec, Cat #AH-202-DD-50 or Cat #AM-202-DD-50) were evaluated using the CellTiter-Glo 2.0 Assay Kit (Promega, Cat #G9243), in which the quantity of ATP present is used to determine the number of viable cells in culture. […]

Another assay addresses T2, human CACNG1 nanodisc (Homo sapiens, UniProt Q06432).
T2 construct: PΔΔCt RE (C); Flag (C)
Put plainly: Biacore binding kinetics of anti-CACNG1 antibodies to surface-captured human CACNG1 nanodisc. The conditions noted are these: 25° C., 1:1 binding model. As for the experimental part: This Example relates to evaluation of binding kinetics of purified anti-CACNG1 antibodies described herein to a human CACNG1 nanodisc capture surface using real-time surface plasmon resonance biosensor technology with a Biacore T200 instrument.
Equilibrium dissociation constants (KD values) for nanodisc embedded human CACNG1 expressed with a C-terminal […] tag (human CACNG1 nanodisc; concentration 0.82 mg/ml) binding to purified anti-CACNG1 antibodies were determined using a real-time surface plasmon resonance biosensor technology with a Biacore T200 instrument. The CM5 Biacore sensor surface was derivatized by amine coupling with a monoclonal mouse anti-His antibody (Cytiva; Marlborough, MA). All Biacore binding studies were performed in a buffer composed of 0.01M HEPES, 0.15M NaCl, 1 mM CaCl2, 0.5 mM MgCl2, pH 7.4 (HBS-N++ running buffer). […]
The specific SPR-Biacore sensorgrams were obtained by a double referencing procedure. […] Kinetic association (ka) and dissociation […] rate constants were determined by fitting the real-time sensorgrams to a 1:1 binding model using Scrubber v2.0c curve fitting software. Binding dissociation equilibrium constants (KD) and dissociative half-lives (t %) were calculated from the kinetic rate constants as: […]

T2 sequence (Q06432 whole entry): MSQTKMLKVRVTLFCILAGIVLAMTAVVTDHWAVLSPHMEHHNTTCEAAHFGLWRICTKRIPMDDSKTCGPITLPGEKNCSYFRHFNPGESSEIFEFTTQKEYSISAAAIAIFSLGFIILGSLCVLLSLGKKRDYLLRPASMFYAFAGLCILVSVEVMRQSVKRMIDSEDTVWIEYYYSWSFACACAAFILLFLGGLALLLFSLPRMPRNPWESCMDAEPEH

B1: H1M31941N (antibody)
heavy: QVQLVQSGAEVKKPGASVKVSCKASGYAFTTYGITWVRQAPGQGLEWMGWISAYNGNTNYAEKVQGRFTMTTDTSTNTAYMELRSLRSDDTAVYFCARKGHYGSGTYYNPFGFDFWGQGTMVTVSSAKTTPPSVYPLAPGSAAQTNSMVTLGCLVKGYFPEPVTVTWNSGSLSSGVHTFPAVLQSDLYTLSSSVTVPSSTWPSETVTCNVAHPASSTKVDKKIVPRDCGCKPCICTVPEVSSVFIFPPKPKDVLTITLTPKVTCVVVDISKDDPEVQFSWFVDDVEVHTAQTQPREEQFNSTFRSVSELPIMHQDWLNGKEFKCRVNSAAFPAPIEKTISKTKGRPKAPQVYTIPPPKEQMAKDKVSLTCMITDFFPEDITVEWQWNGQPAENYKNTQPIMDTDGSYFVYSKLNVQKSNWEAGNTFTCSVLHEGLHNHHTEKSLSHSPGK
light: EIMLMQSPGTLSLSPGERATLSCRASQSVSSSYLAWYQQKPGQAPRLLIYGASSRATDIPDRFSGSGSGTDFTLTISRLEPEDFAVYFCQQYYGSPWTFGQGTKVEIKRADAAPTVSIFPPSSEQLTSGGASVVCFLNNFYPKDINVKWKIDGSERQNGVLNSWTDQDSKDSTYSMSSTLTLTKDEYERHNSYTCEATHKTSTSPIVKSFNRGEC
In the case of B1, the “binding to CACNG1^Hu/Hu myofibers ex vivo” value with CACNG1^Hu/Hu myofibers is “demonstrated binding”. Further, the “binding to wildtype or CACNG1 knockout myofibers” value in assay [1] was “did not bind”. Besides, the EC50 with C2C12 mouse myotubes, in the assay with HEK293/mCACNG1 and in the assay with HEK293 Hz was over 100 nM throughout. Also, the “% KILL” value in the assay on HEK293 was 0.0%.

B2: H2aM31941N: anti-CACNG1 antibody; HCVR SEQ ID NO: 25, LCVR SEQ ID NO: 29, HC SEQ ID NO: 151, LC SEQ ID NO: 152 (antibody)
heavy: QVQLVQSGAEVKKPGASVKVSCKASGYAFTTYGITWVRQAPGQGLEWMGWISAYNGNTNYAEKVQGRFTMTTDTSTNTAYMELRSLRSDDTAVYFCARKGHYGSGTYYNPFGFDFWGQGTMVTVSSAKTTPPSVYPLAPGSAAQTNSMVTLGCLVKGYFPEPVTVTWNSGSLSSGVHTFPAVLQSDLYTLSSSVTVPSSTWPSETVTCNVAHPASSTKVDKKIVPRDCGCKPCICTVPEVSSVFIFPPKPKDVLTITLTPKVTCVVVDISKDDPEVQFSWFVDDVEVHTAQTQPREEQFNSTFRSVSELPIMHQDWLNGKEFKCRVNSAAFPAPIEKTISKTKGRPKAPQVYTIPPPKEQMAKDKVSLTCMITDFFPEDITVEWQWNGQPAENYKNTQPIMDTDGSYFVYSKLNVQKSNWEAGNTFTCSVLHEGLHNHHTEKSLSHSPGK
light: EIMLMQSPGTLSLSPGERATLSCRASQSVSSSYLAWYQQKPGQAPRLLIYGASSRATDIPDRFSGSGSGTDFTLTISRLEPEDFAVYFCQQYYGSPWTFGQGTKVEIKRADAAPTVSIFPPSSEQLTSGGASVVCFLNNFYPKDINVKWKIDGSERQNGVLNSWTDQDSKDSTYSMSSTLTLTKDEYERHNSYTCEATHKTSTSPIVKSFNRGEC
B2: in the assay with human CACNG1 nanodisc, the “ka” value amounted to 342000 M⁻¹ s⁻¹ and the “kd” value is 0.000406 s⁻¹.
